Measurements from PMC10902388.

Legend:
[1] = biological target: E6AP-Nanoluc (human) (UniProt Q05086); test: SPR
[2] = biological target: E6AP-Nanoluc (human) (UniProt Q05086); test: FRET or BRET

Sequence of E6AP-Nanoluc (human) (Q05086 whole entry): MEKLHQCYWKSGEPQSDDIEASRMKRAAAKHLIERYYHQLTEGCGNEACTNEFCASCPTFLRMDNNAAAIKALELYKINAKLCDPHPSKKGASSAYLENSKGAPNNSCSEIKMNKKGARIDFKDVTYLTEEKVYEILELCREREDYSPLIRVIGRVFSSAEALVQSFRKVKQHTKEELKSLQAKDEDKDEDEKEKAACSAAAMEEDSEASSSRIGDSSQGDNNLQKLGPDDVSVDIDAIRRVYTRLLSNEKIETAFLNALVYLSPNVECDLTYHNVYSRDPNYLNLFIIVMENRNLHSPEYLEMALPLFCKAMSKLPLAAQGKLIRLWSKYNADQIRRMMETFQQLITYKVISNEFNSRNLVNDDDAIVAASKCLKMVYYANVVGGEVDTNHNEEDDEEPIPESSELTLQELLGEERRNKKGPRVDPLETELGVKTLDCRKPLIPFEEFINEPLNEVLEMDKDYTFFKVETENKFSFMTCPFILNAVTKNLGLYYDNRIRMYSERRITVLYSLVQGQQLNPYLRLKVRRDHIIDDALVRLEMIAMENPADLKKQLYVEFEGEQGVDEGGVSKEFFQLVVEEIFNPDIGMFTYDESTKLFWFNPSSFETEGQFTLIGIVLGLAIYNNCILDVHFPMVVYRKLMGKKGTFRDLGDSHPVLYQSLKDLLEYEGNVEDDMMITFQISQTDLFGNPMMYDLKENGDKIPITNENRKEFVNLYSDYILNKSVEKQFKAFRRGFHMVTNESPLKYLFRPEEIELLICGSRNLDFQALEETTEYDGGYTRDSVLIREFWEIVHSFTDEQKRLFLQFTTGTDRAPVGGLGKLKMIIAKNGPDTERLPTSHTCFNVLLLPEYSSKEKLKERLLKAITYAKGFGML

## MBP-16E6-HaloTag protein (from UniProt P03126) (natural protein)
[1]
  Kd: 4 nM
[2]
  Kd: 15.3 nM
